This passage reports pKa results from PMC8297725.

The target of data set [1] is Cys215 (UniProt position 215, PVVVHCSAGIG). As to the kind of experiment: kinetics. Conditions: 25 °C; constant ionic strength buffer mix (value not stated); 50 mM sodium acetate, 100 mM Tris, 100 mM bis-Tris; steady-state turnover with the substrate pNPP.
Data set [2] deals with Asp181 (UniProt position 181, YGTWPDFGVPE). Kind of data set: kinetics. The conditions noted are these: 25 °C; constant ionic strength buffer mix (value not stated); 50 mM sodium acetate, 100 mM Tris, 100 mM bis-Tris; steady-state turnover with the substrate pNPP.
Data set [3] has as its target Asp181 (UniProt position 181, YTTWPDFGVPE). As to the kind of experiment: kinetics. The conditions noted are these: 25 °C; constant ionic strength buffer mix (value not stated); 50 mM sodium acetate, 100 mM Tris, 100 mM bis-Tris; steady-state turnover with the substrate pNPP.
Data set [4] concerns the target Asp356 (UniProt position 356, VGNWPDQTAVS). Kind of data set: kinetics. Conditions: 25 °C; constant ionic strength buffer mix (value not stated); 50 mM sodium acetate, 100 mM Tris, 100 mM bis-Tris; steady-state turnover with the substrate pNPP.
The target of data set [5] is T1, Cys403 (UniProt position 403, RPVIHCRAGVG). As to the kind of experiment: kinetics. The conditions noted are these: 25 °C; constant ionic strength buffer mix (value not stated); 50 mM sodium acetate, 100 mM Tris, 100 mM bis-Tris; steady-state turnover with the substrate pNPP.
The target of data set [6] is T1, Cys403. As to the kind of experiment: chemical modification. The conditions noted are these: ligand-free enzyme.

What is called pKa is the pH at which an ionisable group is half protonated.

PTP1B T177G (Homo sapiens; T177G): the pKa in data set [1] is reported as 5.44 ± 0.37; in data set [2] it was 6.37 ± 0.28.

Take “Protein tyrosine phosphatase 1B (PTP1B), wild type (Homo sapiens)”: the pKa in data set [1] came out at 5.08 ± 0.20; in data set [3], 6.44 ± 0.26.

As for “YopH (Yersinia protein tyrosine phosphatase), wild type (Yersinia (species not stated in the article))”, the pKa is on record as 5.58 ± 0.34 in data set [4], 5.02 ± 0.27 in data set [5], 4.6 ± 0.2 in data set [6] and 4.67 ± 0.15 in data set [6] (cited from earlier work).
